Assays:
Assay in all cases: ELISA, plate coated with a dilution series of the recombinant TNFRSF protein [panel B]
[1] = target: T1, Recombinant human TNFRSF21 (DR6) (human, UniProt O75509 42-349, limits assumed)
T1 construct: Plate-adsorbed antigen of the ELISA
T1 sequence (looked up): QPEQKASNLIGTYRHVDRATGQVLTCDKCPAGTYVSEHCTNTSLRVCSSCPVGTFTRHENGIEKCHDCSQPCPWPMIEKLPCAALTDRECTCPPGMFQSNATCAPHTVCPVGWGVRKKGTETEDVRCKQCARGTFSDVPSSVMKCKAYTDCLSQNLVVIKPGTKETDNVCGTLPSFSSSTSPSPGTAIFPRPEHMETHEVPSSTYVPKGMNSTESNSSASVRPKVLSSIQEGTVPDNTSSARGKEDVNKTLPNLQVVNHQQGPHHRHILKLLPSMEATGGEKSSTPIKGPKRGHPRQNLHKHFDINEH
Procedure: (§1) An eight point, two-fold dilution series of each recombinant human TNFRSF protein was prepared after dilution of stock proteins to 5 μg/mL in PBS. Subsequently, 50 μL of each antigen dilution was transferred in duplicate to wells of a Nunc 96-well MaxiSorp flat bottom plate, and incubated overnight at 4° C. to adsorb proteins to the plate. Afterwards, plates were washed three times with PBS in a BioTek® plate washer to remove unbound protein. Anti OX40 mAb29, 9B12, and control antibodies were diluted in PBS to a final concentration of 10 μg/mL, and 50 μL of mAb were added to each well and incubated at room temperature for one hour to bind mAb to plate-bound protein. Thereafter, wells were washed with PBS/Tween-20 0.1% (volume/volume) using a BioTek® plate washer. HRP conjugated goat anti-human or goat anti-mouse secondary antibodies at 10 μg/mL was added to each well and incubated at room temperature for 1 hour. After three washes in PBS/Tween-20 0.1%, 50 μL of TMB substrate was added to each well and incubated at room temperature for 5 minutes to develop the colorimetric product. Reactions were stopped by adding 50 μL of 0.5 molar H₂SO₄ to wells, and plates read immediately at 450 nm using an Envision C plate reader for detection of the colorimetric product.

[2] = target: T2, Recombinant human TNFRSF14 (HVEM) (human, UniProt Q92956 39-202, limits assumed)
T2 construct: Plate-adsorbed antigen of the ELISA
T2 sequence (looked up): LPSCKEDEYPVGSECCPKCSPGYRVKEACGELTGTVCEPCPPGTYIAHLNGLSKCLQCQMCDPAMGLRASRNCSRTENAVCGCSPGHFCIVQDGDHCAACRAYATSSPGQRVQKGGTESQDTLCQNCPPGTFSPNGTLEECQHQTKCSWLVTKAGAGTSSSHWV
Procedure: as §1

[3] = target: T3, Recombinant human TNFRSF1β (TNFRII) (human, UniProt P20333 23-257)
T3 construct: Plate-adsorbed antigen of the ELISA; also called TNFR2; TNFRSF1B
T3 sequence (looked up): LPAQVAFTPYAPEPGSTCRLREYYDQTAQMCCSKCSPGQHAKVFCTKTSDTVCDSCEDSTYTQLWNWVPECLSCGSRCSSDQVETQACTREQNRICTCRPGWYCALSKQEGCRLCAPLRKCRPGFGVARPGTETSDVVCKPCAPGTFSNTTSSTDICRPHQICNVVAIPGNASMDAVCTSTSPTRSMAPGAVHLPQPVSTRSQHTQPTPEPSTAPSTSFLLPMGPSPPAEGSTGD
Procedure: as §1

[4] = target: T4, Recombinant human TNFRSF11B (OPG) (human, UniProt O00300 22-401, limits assumed)
T4 construct: Plate-adsorbed antigen of the ELISA; also called osteoprotegerin
T4 sequence (looked up): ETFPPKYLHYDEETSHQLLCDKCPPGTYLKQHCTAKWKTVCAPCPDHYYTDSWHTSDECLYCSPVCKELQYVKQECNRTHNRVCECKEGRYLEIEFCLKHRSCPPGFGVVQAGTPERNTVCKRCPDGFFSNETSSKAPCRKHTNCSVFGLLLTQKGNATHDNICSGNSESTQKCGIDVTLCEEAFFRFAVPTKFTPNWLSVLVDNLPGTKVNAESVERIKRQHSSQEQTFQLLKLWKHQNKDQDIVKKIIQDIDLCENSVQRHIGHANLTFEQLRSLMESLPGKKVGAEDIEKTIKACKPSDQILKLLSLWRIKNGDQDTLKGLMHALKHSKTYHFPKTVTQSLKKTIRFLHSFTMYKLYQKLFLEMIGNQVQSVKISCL
Procedure: as §1

[5] = target: T5, Recombinant human TNFRSF18 (GITR) (human, UniProt Q9Y5U5 26-162, limits assumed)
T5 construct: Plate-adsorbed antigen of the ELISA
T5 sequence (looked up): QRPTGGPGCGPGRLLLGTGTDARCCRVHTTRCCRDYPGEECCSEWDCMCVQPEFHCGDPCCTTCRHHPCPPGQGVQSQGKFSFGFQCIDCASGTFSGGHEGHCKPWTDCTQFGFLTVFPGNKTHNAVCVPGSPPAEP
Procedure: as §1

[6] = target: T6, Recombinant human TNFRSF11A (RANK) (human, UniProt Q9Y6Q6 30-212)
T6 construct: Plate-adsorbed antigen of the ELISA; also called CD265
T6 sequence (looked up): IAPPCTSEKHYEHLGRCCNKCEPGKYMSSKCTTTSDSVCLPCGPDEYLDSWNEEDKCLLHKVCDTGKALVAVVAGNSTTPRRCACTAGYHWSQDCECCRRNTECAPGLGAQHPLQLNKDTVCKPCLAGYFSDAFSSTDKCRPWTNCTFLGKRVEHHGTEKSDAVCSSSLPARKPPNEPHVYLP
Procedure: as §1

[7] = target: T7, Recombinant human TNFRSF3 (LTβR) (human, UniProt P36941 28-227, limits assumed)
T7 construct: Plate-adsorbed antigen of the ELISA
T7 sequence (P36941 28-227 limits assumed): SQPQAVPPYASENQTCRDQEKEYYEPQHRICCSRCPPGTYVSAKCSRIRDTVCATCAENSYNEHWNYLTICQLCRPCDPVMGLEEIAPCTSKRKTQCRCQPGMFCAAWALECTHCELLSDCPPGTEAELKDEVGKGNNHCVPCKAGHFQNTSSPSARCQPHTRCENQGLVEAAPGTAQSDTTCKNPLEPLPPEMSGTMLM
Procedure: as §1

[8] = target: T8, Recombinant human TNFRSF6 (FAS) (human, UniProt P25445 26-173)
T8 construct: Plate-adsorbed antigen of the ELISA
T8 sequence (looked up): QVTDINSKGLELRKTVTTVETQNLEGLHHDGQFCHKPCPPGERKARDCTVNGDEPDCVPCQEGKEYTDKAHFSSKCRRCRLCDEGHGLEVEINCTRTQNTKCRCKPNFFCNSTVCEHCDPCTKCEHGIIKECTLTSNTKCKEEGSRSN
Procedure: as §1

binding result [1]: no binding | binding result [2]: no binding | binding result [3]: no binding | binding result [4]: no binding | binding result [5]: no binding | binding result [6]: no binding | binding result [7]: no binding | binding result [8]: no binding
B1: 9B12 (antibody, mouse IgG1, V domains shown)
VH: EVQLQESGPSLVKPSQTLSLTCSVTGDSFTSGYWNWIRKFPGNRLEYMGYISYNGITYHNPSLKSRISITRDTSKNHYYLQLNSVTTEDTATYFCARYRYDYDGGHAMDYWGQGTLVTVSS
VL: DIQMTQTTSSLSASLGDRVTISCRASQDISNYLNWYQQKPDGTVKLLIYYTSKLHSGVPSRFSGSGSRTDYSLTITDLDQEDIATYFCQQGSALPWTFGQGTKVEIKR
notes: mouse IgG1 kappa; also called murine mAb 9B12; mouse anti-human OX40 IgG1κ monoclonal antibody

Source: patent US20160137740A1 (AstraZeneca / MedImmune, published 2016)
